125 sequences from the supplement of paper PMC9112550, “Optimization of the antimicrobial peptide Bac7 by deep mutational scanning” (BMC Biology, 2022) can be followed below.

In the data set the test system is Escherichia coli TOP10. The data set can be described thus: shrunken log2 fold change of peptide-encoding DNA abundance (4.5 h post-induction vs induction); higher = less antimicrobial activity (less host growth inhibition). The conditions noted are these: time post-induction: 4.5 h; library: site-saturation at positions 5, 18, 19, 20.
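Also: peptides expressed intracellularly from a pBAD plasmid library in pooled LB shake-flask culture, induced with 0.3% L-arabinose, DNA abundance read by NGS, three biological replicates, DESeq2 with apeglm shrinkage.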

With RRIRKRPPRLPRPRPRPGLMPRP, the “shrunken log2 fold change” value is 0.343.

Take RRIRWRPPRLPRPRPRPDNHPRP: the “shrunken log2 fold change” value is -0.299. In the case of RRIRARPPRLPRPRPRPKNVPRP, the “shrunken log2 fold change” value turned out to be 0.166.

On to RRIRSRPPRLPRPRPRPQHKPRP, for which the “shrunken log2 fold change” value was -0.131. In the case of RRIRFRPPRLPRPRPRPWEYPRP, the “shrunken log2 fold change” value was 0.0231.

For the sequence RRIRPRPPRLPRPRPRPFRHPRP, the “shrunken log2 fold change” value was -0.191. To RRIRIRPPRLPRPRPRPWRAPRP belongs 0.0578; to RRIRWRPPRLPRPRPRPKSFPRP, 0.0955. Under RRIRARPPRLPRPRPRPEMVPRP stands 0.00546; under RRIRIRPPRLPRPRPRPPVPPRP, 0.233; under RRIRVRPPRLPRPRPRPAQSPRP, 0.107. RRIRMRPPRLPRPRPRPNLIPRP: the “shrunken log2 fold change” value is -0.0317. With RRIRARPPRLPRPRPRPDGRPRP, the “shrunken log2 fold change” value was 0.197.

Take RRIRFRPPRLPRPRPRPYHGPRP: the “shrunken log2 fold change” value was -0.114. For the sequence RRIRDRPPRLPRPRPRPLNIPRP, the “shrunken log2 fold change” value was -0.161.

In the case of RRIRMRPPRLPRPRPRPKCPPRP, the “shrunken log2 fold change” value stood at 0.108. Take RRIRTRPPRLPRPRPRPRLQPRP: the “shrunken log2 fold change” value stood at 0.123. To RRIRSRPPRLPRPRPRPNPHPRP belongs -0.139. With RRIRARPPRLPRPRPRPCYVPRP, the “shrunken log2 fold change” value was -0.279. With RRIRNRPPRLPRPRPRPNHEPRP, the “shrunken log2 fold change” value was -0.00884. RRIRKRPPRLPRPRPRPIHFPRP: the “shrunken log2 fold change” value is -0.241. With RRIRNRPPRLPRPRPRPNEMPRP, the “shrunken log2 fold change” value is -0.00174. Under RRIRERPPRLPRPRPRPAHYPRP stands -0.148; under RRIRQRPPRLPRPRPRPKLAPRP, -0.0518. For the sequence RRIRPRPPRLPRPRPRPTGDPRP, the “shrunken log2 fold change” value turned out to be 0.649.

Turning to RRIRMRPPRLPRPRPRPKAFPRP, the “shrunken log2 fold change” value came to 0.0392. With RRIRARPPRLPRPRPRPNDNPRP, the “shrunken log2 fold change” value is -0.344. With RRIRVRPPRLPRPRPRPTTGPRP, the “shrunken log2 fold change” value was found to be 0.141. RRIRPRPPRLPRPRPRPHYYPRP: the “shrunken log2 fold change” value is -0.439. As for RRIRQRPPRLPRPRPRPEMYPRP, the “shrunken log2 fold change” value is -0.173. As for RRIRARPPRLPRPRPRPWDCPRP, the “shrunken log2 fold change” value came out at 0.0143. As for RRIRCRPPRLPRPRPRPKRKPRP, the “shrunken log2 fold change” value amounted to 0.157. With RRIRQRPPRLPRPRPRPWALPRP, the “shrunken log2 fold change” value was -0.0992.

With RRIRWRPPRLPRPRPRPNSAPRP, the “shrunken log2 fold change” value turned out to be 0.104. As for RRIRQRPPRLPRPRPRPVSPPRP, the “shrunken log2 fold change” value is -0.0264. In the case of RRIRPRPPRLPRPRPRPKISPRP, the “shrunken log2 fold change” value is -0.0927. As for RRIRRRPPRLPRPRPRPAFYPRP, the “shrunken log2 fold change” value was 0.654.

With RRIRFRPPRLPRPRPRPDRHPRP, the “shrunken log2 fold change” value is -0.164. RRIRPRPPRLPRPRPRPKCTPRP: the “shrunken log2 fold change” value was -0.0758.

As to RRIRQRPPRLPRPRPRPPYNPRP, the “shrunken log2 fold change” value was -0.154. Take RRIRGRPPRLPRPRPRPQGMPRP: the “shrunken log2 fold change” value came out at 0.0957. Regarding RRIRGRPPRLPRPRPRPKQDPRP, the “shrunken log2 fold change” value came to 0.881.

Take RRIRKRPPRLPRPRPRPWPEPRP: the “shrunken log2 fold change” value worked out at 0.0451. As for RRIRQRPPRLPRPRPRPKPMPRP, the “shrunken log2 fold change” value was 0.382. In the case of RRIRQRPPRLPRPRPRPWCMPRP, the “shrunken log2 fold change” value was -0.342. To RRIRCRPPRLPRPRPRPAVEPRP belongs -0.0939; to RRIRWRPPRLPRPRPRPVQYPRP, -0.108. Turning to RRIRHRPPRLPRPRPRPLIKPRP, the “shrunken log2 fold change” value is -0.721. In the case of RRIRNRPPRLPRPRPRPPPLPRP, the “shrunken log2 fold change” value is 0.732. RRIRDRPPRLPRPRPRPWGGPRP: the “shrunken log2 fold change” value is 0.422.

Take RRIRHRPPRLPRPRPRPPVCPRP: the “shrunken log2 fold change” value is -0.0372. Take RRIRLRPPRLPRPRPRPLDWPRP: the “shrunken log2 fold change” value was 0.124.

In the case of RRIRSRPPRLPRPRPRPMDGPRP, the “shrunken log2 fold change” value was -0.095.

Take RRIRSRPPRLPRPRPRPDSTPRP: the “shrunken log2 fold change” value was -0.481. Regarding RRIRDRPPRLPRPRPRPIPYPRP, the “shrunken log2 fold change” value was -0.0147. In the case of RRIRYRPPRLPRPRPRPGTFPRP, the “shrunken log2 fold change” value was -0.53. Under RRIRMRPPRLPRPRPRPTRKPRP stands 1.6; under RRIRMRPPRLPRPRPRPNRWPRP, 0.394; under RRIRWRPPRLPRPRPRPCSLPRP, -0.0592. As for RRIRNRPPRLPRPRPRPHLYPRP, the “shrunken log2 fold change” value is -0.22. On to RRIRQRPPRLPRPRPRPNNTPRP, for which the “shrunken log2 fold change” value was -0.578.

As for RRIRQRPPRLPRPRPRPLDYPRP, the “shrunken log2 fold change” value turned out to be 0.13. For RRIRHRPPRLPRPRPRPFNEPRP, the “shrunken log2 fold change” value was -0.64. Under RRIRMRPPRLPRPRPRPHSIPRP stands 0.0955; under RRIRRRPPRLPRPRPRPDCRPRP, 0.0322; under RRIRQRPPRLPRPRPRPVPYPRP, -0.363. Regarding RRIRFRPPRLPRPRPRPEGRPRP, the “shrunken log2 fold change” value was -0.145. For the sequence RRIRRRPPRLPRPRPRPYLPPRP, the “shrunken log2 fold change” value is -0.456.

Regarding RRIRRRPPRLPRPRPRPSWTPRP, the “shrunken log2 fold change” value is 0.46. In the case of RRIRDRPPRLPRPRPRPRYAPRP, the “shrunken log2 fold change” value came to 0.215.

In the case of RRIRARPPRLPRPRPRPMWYPRP, the “shrunken log2 fold change” value is -0.0479. With RRIRIRPPRLPRPRPRPYHCPRP, the “shrunken log2 fold change” value was -0.0272. For RRIRWRPPRLPRPRPRPKCVPRP, the “shrunken log2 fold change” value was -0.0153. RRIRARPPRLPRPRPRPVSAPRP: the “shrunken log2 fold change” value amounted to 0.455.

Turning to RRIRNRPPRLPRPRPRPKVLPRP, the “shrunken log2 fold change” value was -0.105. Consider RRIRRRPPRLPRPRPRPRAEPRP, for which the “shrunken log2 fold change” value came to 0.572.

Take RRIRFRPPRLPRPRPRPVFAPRP: the “shrunken log2 fold change” value amounted to 0.158. As to RRIRWRPPRLPRPRPRPYKMPRP, the “shrunken log2 fold change” value was found to be 0.0642. Turning to RRIRSRPPRLPRPRPRPESMPRP, the “shrunken log2 fold change” value worked out at 0.151. Take RRIRARPPRLPRPRPRPWSVPRP: the “shrunken log2 fold change” value is 0.0303. Take RRIRQRPPRLPRPRPRPDATPRP: the “shrunken log2 fold change” value came to 0.495.

RRIRIRPPRLPRPRPRPYVNPRP: the “shrunken log2 fold change” value is -0.0125. For RRIRLRPPRLPRPRPRPGHNPRP, the “shrunken log2 fold change” value was -0.371.

Regarding RRIRGRPPRLPRPRPRPLTAPRP, the “shrunken log2 fold change” value was 0.998. For RRIRFRPPRLPRPRPRPTYHPRP, the “shrunken log2 fold change” value is -0.428. As to RRIRPRPPRLPRPRPRPKKLPRP, the “shrunken log2 fold change” value is -0.0688.

In the case of RRIRVRPPRLPRPRPRPPWIPRP, the “shrunken log2 fold change” value is 0.218. As to RRIRFRPPRLPRPRPRPRIYPRP, the “shrunken log2 fold change” value is -0.326. For RRIRRRPPRLPRPRPRPMRAPRP, the “shrunken log2 fold change” value is 0.905. With RRIRMRPPRLPRPRPRPYMRPRP, the “shrunken log2 fold change” value amounted to 0.0391.

For RRIRSRPPRLPRPRPRPLEPPRP, the “shrunken log2 fold change” value was -0.132. To RRIRMRPPRLPRPRPRPKIDPRP belongs 0.285. For the sequence RRIRARPPRLPRPRPRPSRPPRP, the “shrunken log2 fold change” value is 0.612. Regarding RRIRYRPPRLPRPRPRPPRLPRP, the “shrunken log2 fold change” value stood at 0.0944. On to RRIRFRPPRLPRPRPRPHGTPRP, for which the “shrunken log2 fold change” value was -0.134. For the sequence RRIRARPPRLPRPRPRPDERPRP, the “shrunken log2 fold change” value turned out to be 0.423. For RRIRYRPPRLPRPRPRPEWDPRP, the “shrunken log2 fold change” value is -0.0176. Take RRIRPRPPRLPRPRPRPVVTPRP: the “shrunken log2 fold change” value is -0.207. Turning to RRIRIRPPRLPRPRPRPCFCPRP, the “shrunken log2 fold change” value was -0.422. To RRIRRRPPRLPRPRPRPNCSPRP belongs 0.198; to RRIRLRPPRLPRPRPRPKNTPRP, -0.333. For RRIRSRPPRLPRPRPRPRDYPRP, the “shrunken log2 fold change” value is -0.341. As for RRIRTRPPRLPRPRPRPYEPPRP, the “shrunken log2 fold change” value is -0.18. For RRIRPRPPRLPRPRPRPRAIPRP, the “shrunken log2 fold change” value worked out at 0.503. RRIRARPPRLPRPRPRPDFCPRP: the “shrunken log2 fold change” value was determined as 0.168. To RRIRFRPPRLPRPRPRPDVKPRP belongs -0.0558; to RRIRYRPPRLPRPRPRPQKPPRP, -0.0745. Regarding RRIRWRPPRLPRPRPRPKHFPRP, the “shrunken log2 fold change” value was -0.0487. For the sequence RRIRERPPRLPRPRPRPVWPPRP, the “shrunken log2 fold change” value came out at 0.0958. As for RRIRFRPPRLPRPRPRPVCRPRP, the “shrunken log2 fold change” value is -0.0676. With RRIRFRPPRLPRPRPRPSVQPRP, the “shrunken log2 fold change” value is -0.241. RRIRSRPPRLPRPRPRPWSQPRP: the “shrunken log2 fold change” value was -0.00693. Consider RRIRPRPPRLPRPRPRPIRVPRP, for which the “shrunken log2 fold change” value is -0.262. In the case of RRIRARPPRLPRPRPRPHTKPRP, the “shrunken log2 fold change” value worked out at 0.0902. Regarding RRIRTRPPRLPRPRPRPVITPRP, the “shrunken log2 fold change” value amounted to 0.0105. With RRIRRRPPRLPRPRPRPEKCPRP, the “shrunken log2 fold change” value is -0.00259. Under RRIRSRPPRLPRPRPRPWRHPRP stands -0.106; under RRIRIRPPRLPRPRPRPTIYPRP, -0.865; under RRIRARPPRLPRPRPRPSHEPRP, 0.415.

As for RRIRGRPPRLPRPRPRPFPLPRP, the “shrunken log2 fold change” value was 0.227.

On to RRIRIRPPRLPRPRPRPDYEPRP, for which the “shrunken log2 fold change” value is -0.0916. Under RRIRNRPPRLPRPRPRPSMPPRP stands -0.139; under RRIRGRPPRLPRPRPRPFIVPRP, -0.00433; under RRIRARPPRLPRPRPRPKQDPRP, 0.734. Under RRIRWRPPRLPRPRPRPSPAPRP stands 0.348.
